Experimental data as given in IntAct's records for PubMed 18728196.

Target: pstp_myctu pstP (UniProt P9WHW5)

“ECF RNA polymerase sigma factor SigH (Mycobacterium tuberculosis (strain ATCC 25618 / H37Rv)), P9WGH9 T26A;T106A” was tested, and the “effect of a mutation on the interaction” value was “disrupting interaction”.
